Where “and” joins values, the source holds several entries; their conditions need not be identical. Equal entries are not always repeated.
What was measured:
[1] = target: T1, Solute carrier family 22 member 2 (Homo sapiens, UniProt O15244); assay: TP_TRANSPORTER: uptake in OCT2-expressing HEK293 cells; format: functional, cell-based
T1 sequence (O15244 whole entry): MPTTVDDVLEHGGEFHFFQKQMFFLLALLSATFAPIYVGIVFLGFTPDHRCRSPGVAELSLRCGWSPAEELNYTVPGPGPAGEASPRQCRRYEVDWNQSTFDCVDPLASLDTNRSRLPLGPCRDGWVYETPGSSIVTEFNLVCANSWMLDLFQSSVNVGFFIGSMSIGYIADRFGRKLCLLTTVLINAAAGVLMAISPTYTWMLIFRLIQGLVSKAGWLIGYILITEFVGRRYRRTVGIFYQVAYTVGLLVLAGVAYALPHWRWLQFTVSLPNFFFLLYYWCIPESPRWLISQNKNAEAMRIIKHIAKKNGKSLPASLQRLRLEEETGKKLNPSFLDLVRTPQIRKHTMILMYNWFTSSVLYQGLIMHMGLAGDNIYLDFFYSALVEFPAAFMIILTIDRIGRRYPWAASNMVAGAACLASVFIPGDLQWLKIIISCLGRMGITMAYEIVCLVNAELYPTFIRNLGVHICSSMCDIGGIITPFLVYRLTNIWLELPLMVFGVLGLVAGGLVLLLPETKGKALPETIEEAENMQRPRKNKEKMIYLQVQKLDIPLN

[2] = target: T1, Solute carrier family 22 member 2; assay: TP_TRANSPORTER: inhibition of Dopamine uptake (Dopamine: 200 uM) in Xenopus laevis oocytes; format: functional, cell-based, Oocyte
[3] = substrate: NC[C@H](O)c1ccc(O)c(O)c1; assay: (§1) TP_TRANSPORTER: uptake in Xenopus laevis oocytes; format: functional, cell-based, Oocyte
[4] = substrate: NCCc1c[nH]c2ccc(O)cc12; assay: as §1; format: functional, cell-based, Oocyte
[5] = substrate: NC12CC3CC(CC(C3)C1)C2; assay: (§2) TP_TRANSPORTER: uptake (electrogenesis) in Xenopus laevis oocytes; format: functional, cell-based, Oocyte
[6] = substrate: CC12CC3CC(C)(C1)CC(N)(C3)C2; assay: as §2; format: functional, cell-based, Oocyte
[7] = substrate: NCCc1ccc(O)c(O)c1; assay: cells, lysate or membranes named
[8] = substrate: NCCc1c[nH]cn1; assay: cells, lysate or membranes named

In the case of `C[n+]1ccc(-c2ccccc2)cc1`, the Km [1] is reported as 16 µM.

`NC12CC3CC(CC(C3)C1)C2` [AMANTADINE] showed an IC50 [2] of 23 µM.

B1: Solute carrier family 22 member 2 (Homo sapiens) (protein)
chain: T1 sequence (O15244 whole entry)
With B1 the Km [3] was 1900 µM, the Km [4] was 80 µM and the Km [5] was 27 µM. The Km [6] was 34 µM, the Km [7] was 330 µM and 390 µM and 520 µM and the Km [8] was 1300 µM.

Source: ChEMBL document CHEMBL2074348, “Human neurons express the polyspecific cation transporter hOCT2, which translocates monoamine neurotransmitters, amantadine, and memantine” (Mol Pharmacol, 1998)
